Source: article PMC4873976, “Structural basis for haem piracy from host haemopexin by Haemophilus influenzae” (Nature Communications, 2016)
Numbering of substitutions follows the chain as printed.

What was measured:
[1] = molecular target: cysteine-less variant of HxuA^DEL (Haemophilus influenzae) (UniProt P44602); test: ITC; haemopexin or its fragments (~100 μM) in the syringe, HxuA (~10 μM) in the cell; 20 mM Na-phosphate pH 7.0, 25 °C; single-site model; apparent Ka
[2] = molecular target: T1, HxuA (cysteine-less variant, Cys855 and Cys861 replaced by serines; referred to as HxuA throughout) (Haemophilus influenzae, UniProt P44602 22-905, Cys855 replaced by serine | Cys861 replaced by serine); test: ITC; haemopexin or its fragment (~100 uM) in the syringe, HxuA or mutant (~10 uM) in the cell; 25 °C; 20 mM Na-phosphate pH 7.0; single-site model; apparent Ka; mean of one to three experiments; details: both partners purified
T1 construct: also called WT; HxuAWT; source: E. coli BL21 with a pBAD24 derivative harbouring the hxuCBA operon; purified from the culture supernatant (ammonium sulfate, SEC, monoQ)
T1 sequence: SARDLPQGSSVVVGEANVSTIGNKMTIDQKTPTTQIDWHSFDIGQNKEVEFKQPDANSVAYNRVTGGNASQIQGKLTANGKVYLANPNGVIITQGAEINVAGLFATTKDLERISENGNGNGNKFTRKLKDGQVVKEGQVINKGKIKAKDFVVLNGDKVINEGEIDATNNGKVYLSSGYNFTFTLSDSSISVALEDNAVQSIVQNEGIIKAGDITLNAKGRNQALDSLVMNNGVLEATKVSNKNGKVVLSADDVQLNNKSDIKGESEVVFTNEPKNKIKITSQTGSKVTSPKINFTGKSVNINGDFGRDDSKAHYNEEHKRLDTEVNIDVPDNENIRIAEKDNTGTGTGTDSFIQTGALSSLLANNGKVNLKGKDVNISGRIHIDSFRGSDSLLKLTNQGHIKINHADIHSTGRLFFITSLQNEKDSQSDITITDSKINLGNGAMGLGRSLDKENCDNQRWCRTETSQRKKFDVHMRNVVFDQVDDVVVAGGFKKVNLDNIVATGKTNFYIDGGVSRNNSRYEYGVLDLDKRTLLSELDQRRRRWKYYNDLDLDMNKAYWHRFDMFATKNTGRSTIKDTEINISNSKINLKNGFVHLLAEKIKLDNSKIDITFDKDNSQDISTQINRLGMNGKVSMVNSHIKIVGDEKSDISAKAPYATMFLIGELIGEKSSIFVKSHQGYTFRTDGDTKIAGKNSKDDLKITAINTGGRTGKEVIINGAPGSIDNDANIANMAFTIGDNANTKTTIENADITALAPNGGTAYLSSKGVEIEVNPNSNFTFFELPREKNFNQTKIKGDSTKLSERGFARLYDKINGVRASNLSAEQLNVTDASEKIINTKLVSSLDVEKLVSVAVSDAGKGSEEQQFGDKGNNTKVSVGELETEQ

[3] = molecular target: T2, HxuA, cysteine-less variant (cysteines 855 and 861 replaced by serines; referred to as HxuA throughout) (Haemophilus influenzae, UniProt P44602 22-905, cysteine at position 855 replaced by serine | cysteine at position 861 replaced …); test: ITC; haemopexin or its fragments (~100 μM) in the syringe, HxuA (~10 μM) in the cell; 20 mM Na-phosphate pH 7.0, 25 °C; single-site model; apparent Ka; details: both partners purified
T2 construct: HxuA, haem-haemopexin utilisation protein A (TpsA cargo protein) of Haemophilus influenzae, called full-length, 884 residues, Ser1 to Gln884; Measured mass 96,467.6094 (theoretical 96,469.6926); also called HxuAdm; dm variant; source: E. coli BL21, pBAD24 derivative with the hxuCBA operon; purified from the culture supernatant (ammonium sulfate, SEC, monoQ)
T2 sequence: T1 sequence

[4] = molecular target: T3, HxuA^Asp726Ala, cysteine-less (dm) variant (Haemophilus influenzae, UniProt P44602 22-905, Asp726Ala | Cys855 replaced by serine | Cys861 replaced by serine); test: ITC; haemopexin or its fragment (~100 uM) in the syringe, HxuA or mutant (~10 uM) in the cell; 25 °C; 20 mM Na-phosphate pH 7.0; single-site model; apparent Ka; mean of one to three experiments; details: both partners purified
T3 construct: source: E. coli BL21 with a pBAD24 derivative harbouring the hxuCBA operon; purified from the culture supernatant (same protocol as HxuA)
T3 sequence: T1 sequence with D726A

[5] = molecular target: T4, HxuA^DEL (M loop deletion), cysteine-less (dm) variant (Haemophilus influenzae, UniProt P44602 22-905, additional Pro codon replacing the initial 712-728 sequence | Cys855 replaced …); test: as above; details: both partners purified
T4 construct: source: E. coli BL21 with a pBAD24 derivative harbouring the hxuCBA operon; purified from the culture supernatant (same protocol as HxuA)
T4 sequence: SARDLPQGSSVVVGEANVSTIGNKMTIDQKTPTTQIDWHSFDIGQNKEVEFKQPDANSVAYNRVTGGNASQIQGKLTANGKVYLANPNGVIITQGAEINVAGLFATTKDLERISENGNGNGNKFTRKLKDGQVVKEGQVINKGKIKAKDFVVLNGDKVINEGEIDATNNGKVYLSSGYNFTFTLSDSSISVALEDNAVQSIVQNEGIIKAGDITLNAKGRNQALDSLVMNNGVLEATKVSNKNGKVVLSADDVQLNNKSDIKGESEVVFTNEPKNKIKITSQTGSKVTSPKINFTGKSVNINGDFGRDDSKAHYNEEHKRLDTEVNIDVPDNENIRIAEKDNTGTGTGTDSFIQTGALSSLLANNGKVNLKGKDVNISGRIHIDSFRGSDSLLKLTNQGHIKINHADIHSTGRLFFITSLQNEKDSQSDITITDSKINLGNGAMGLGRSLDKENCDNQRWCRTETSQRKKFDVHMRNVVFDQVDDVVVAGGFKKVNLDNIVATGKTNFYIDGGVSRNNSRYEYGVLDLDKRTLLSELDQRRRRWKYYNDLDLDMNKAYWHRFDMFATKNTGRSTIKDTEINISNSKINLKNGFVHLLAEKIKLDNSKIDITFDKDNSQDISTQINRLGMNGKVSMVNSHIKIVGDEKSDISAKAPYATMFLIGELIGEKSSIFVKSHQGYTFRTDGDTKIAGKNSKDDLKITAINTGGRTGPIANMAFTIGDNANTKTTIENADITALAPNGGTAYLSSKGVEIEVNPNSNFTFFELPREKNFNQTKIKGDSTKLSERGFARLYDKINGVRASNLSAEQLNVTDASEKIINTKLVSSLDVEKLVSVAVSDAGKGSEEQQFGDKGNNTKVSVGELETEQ

[6] = molecular target: T5, cysteine-less variant of HxuA^Asp726Ala (Haemophilus influenzae, UniProt P44602 22-905, Asp726Ala | cysteine at position 855 replaced by serine | cysteine at position …); test: ITC; haemopexin or its fragments (~100 μM) in the syringe, HxuA (~10 μM) in the cell; 20 mM Na-phosphate pH 7.0, 25 °C; single-site model; apparent Ka; details: both partners purified
T5 construct: HxuA of Haemophilus influenzae, as m1 with Asp726Ala; also called dm variant of HxuA^Asp726Ala; source: E. coli, purified from the supernatant (same protocol as HxuA)
T5 sequence: T1 sequence with D726A

Molecule: rabbit haem-haemopexin (from UniProt P20058 26-460) (natural protein)
- Ka [1]: 1.7e+08 M⁻¹
- dH [1]: -13 kcal/mol
- stoichiometry N [1]: 1

B1: N-terminal domain of rabbit haemopexin (domain or fragment)
chain: VPLTSAHGNVTEGESGTKPEADVIEQCSDGWSFDATTLDDNGTMLFFKDEFVWKSHRGIRELISERWKNFIGPVDAAFRHGHTSVYLIKGDKVWVYTSEKNEKVYPKSLQDEFPGIPFPLDAAVECHRGECQDEGILFFQGNRKWFWDLTTGTKKERSWPAVGNCTSALRWLGRYYCFQGNQFLRFNPVSGEVPPGYPLDVRDYFLSCPGRGHR
notes: haemopexin, rabbit, N-terminal fragment; The results call the domain residues 1-208; the fragment itself ends at Arg214; also called NtHpx; NterHpx; source: trypsin digestion of haemopexin purified from rabbit serum; purified (mono S, SEC)
- Ka [2]: 7.6e+07 M⁻¹
- stoichiometry N [2]: 0.88

B2: N-terminal domain of rabbit haemopexin (domain or fragment)
chain: B1 chain
notes: haemopexin, rabbit, N-terminal tryptic fragment: cleaved in the linker after Arg 214; also called NtHpx; NterHpx; source: trypsin digestion of haemopexin purified from rabbit serum; purified (mono S, SEC)
- dH [3]: -48.5 kcal/mol
- stoichiometry N [3]: ~1

B3: rabbit haemopexin (haem-free) (natural protein)
chain: VPLTSAHGNVTEGESGTKPEADVIEQCSDGWSFDATTLDDNGTMLFFKDEFVWKSHRGIRELISERWKNFIGPVDAAFRHGHTSVYLIKGDKVWVYTSEKNEKVYPKSLQDEFPGIPFPLDAAVECHRGECQDEGILFFQGNRKWFWDLTTGTKKERSWPAVGNCTSALRWLGRYYCFQGNQFLRFNPVSGEVPPGYPLDVRDYFLSCPGRGHRSSHRNSTQHGHESTRCDPDLVLSAMVSDNHGATYVFSGSHYWRLDTNRDGWHSWPIAHQWPQGPSTVDAAFSWEDKLYLIQDTKVYVFLTKGGYTLVNGYPKRLEKELGSPPVISLEAVDAAFVCPGSSRLHIMAGRRLWWLDLKSGAQATWTELPWPHEKVDGALCMEKPLGPNSCSTSGPNLYLIHGPNLYCYRHVDKLNAAKNLPQPQRVSRLLGCTH
notes: Glycoprotein from serum; also called Hpx; hemopexin; source: purified from rabbit serum (Biosera)
- Ka [2]: > 1e+09 M⁻¹
- stoichiometry N [2]: 0.8
- Ka [4]: > 1e+09 M⁻¹
- stoichiometry N [4]: 0.68
- Ka [5]: > 1e+09 M⁻¹
- stoichiometry N [5]: 1.07

B4: rabbit haem-haemopexin (natural protein)
chain: B3 chain
notes: also called He-Hpx; source: purified from rabbit serum (Biosera), haem-loaded
- Ka [3]: > 1e+09 M⁻¹
- dH [3]: -39.8 kcal/mol
- Ka [6]: 2.9e+06 M⁻¹
- dH [6]: -12.8 kcal/mol

B5: rabbit haem-haemopexin (natural protein)
chain: B3 chain
modifications: haem bound
notes: Same chain as Dm4, with haem; also called He-Hpx; HeHpx; source: purified from rabbit serum (Biosera), haem-loaded
- stoichiometry N [2]: 0.96
- stoichiometry N [4]: 1.06
- stoichiometry N [5]: 0.89

B6: rabbit haemopexin (haem-free) (natural protein)
chain: B3 chain
notes: haemopexin, rabbit, serum glycoprotein, called full-length; two MMP domains (residues 1-208 and 228-435) joined by a linker; Glycoprotein from serum; also called Hpx; full-length haemopexin; source: purified from rabbit serum (Biosera): perchloric acid, PEG 3400, S-sepharose, mono Q, SEC
- dH [3]: -52.7 kcal/mol
